Test results from publication PMC7755716.

Tested on: DtxR (Corynebacterium glutamicum (derived from KCTC No. 1445))
Assay: EMSA
Conditions: 150 uM Mn2+, 5 mM Mg2+, 50 mM Tris-HCl pH 7.5, 5 mM MgCl2, 40 mM KCl, 5% glycerol, 1 mM DTT, 150 uM MnCl2, 30 min at room temperature, 200 ng DNA, 0-350 ng DtxR dimer in 10 ul, 15% …

Substance	binding signal (% of wild-type affinity)	binding signal (% of wild-type affinity) (reference)
NCgl1959 regulatory region, C-14G (399 bp)	40	
NCgl1959 regulatory region, wild type (399 bp)		100
